PMC5618632, “In Vitro Glucuronidation of Wushanicaritin by Liver Microsomes, Intestine Microsomes and Expressed Human UDP-Glucuronosyltransferase Enzymes” (International Journal of Molecular Sciences, 2017)

How the values were obtained:
[1] = set-up: method as in PMID 21968061; conditions: DPPH radical scavenging (antioxidant activity); cited from earlier work
[2] = Glucuronidation by pooled human liver microsomes (HLM), UDPGA-supplemented; assay type: in vitro ADME; conditions: probe substrate glucuronidation
Experimental: (§1) The reaction was terminated by adding ice-cold acetonitrile. […] All experiments were performed in triplicate.
(§2) The parameter were as follow. V is the formation rate of the product. Vmax is the maximal velocity. […] Ksi is the substrate inhibition constant. […] (1) V=Vmax ×[S]/Km+[S] (2) V=Vmax ×[S]/Km + [S](1+[S]/Ksi)

[3] = biological target: T1, expressed human UGT1A1 (Homo sapiens, UniProt P22309); assay: Glucuronidation by expressed UGT1A1
T1 sequence (P22309 26-533): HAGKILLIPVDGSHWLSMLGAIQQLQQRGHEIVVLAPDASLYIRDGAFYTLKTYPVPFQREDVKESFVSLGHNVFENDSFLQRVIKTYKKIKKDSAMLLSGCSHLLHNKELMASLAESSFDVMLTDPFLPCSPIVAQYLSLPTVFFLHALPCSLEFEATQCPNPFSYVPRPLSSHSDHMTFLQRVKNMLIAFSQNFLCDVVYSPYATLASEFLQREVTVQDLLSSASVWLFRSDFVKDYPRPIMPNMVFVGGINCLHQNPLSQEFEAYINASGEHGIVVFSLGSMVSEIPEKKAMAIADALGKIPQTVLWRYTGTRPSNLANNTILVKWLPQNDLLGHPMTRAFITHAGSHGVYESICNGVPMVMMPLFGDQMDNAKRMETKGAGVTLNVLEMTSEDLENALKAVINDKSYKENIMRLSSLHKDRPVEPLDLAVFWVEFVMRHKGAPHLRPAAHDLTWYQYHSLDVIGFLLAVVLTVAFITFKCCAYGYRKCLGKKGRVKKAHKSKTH
Experimental: as §1
The gradient elution program was the same as the UPLC condition of the structural identification of wushanicaritin glucuronides above. The detection wavelength was set at 270 nm, and the injection volume was 8 µL.
as §2
The contribution of individual expressed UGT enzymes to wushanicaritin glucuronidation in HLM was evaluated by the relative activity factor (RAF) approach as described in previous studies. The relative activity factor was defined as the activity ratio of HLM to an expressed UGT enzyme (Supersome) toward a probe substrate for this enzyme using Equation (3). The relative amount of wushanicaritin glucuronidation in HLM attributed to an expressed UGT enzyme was estimated by multiplying the glucuronidation activity (i.e., the intrinsic clearance) derived with this enzyme by the corresponding RAF. […] The contributions of individual UGT enzyme were calculated according to Equation (4). (3) RAF=CLint{probe,pHLM}/CLint{probe,Supersome} (4) Contribution of UGTs=CLint(wushanica ritin,UGTs)/CLint(wushanica ritin,pHLM)×RAF

[4] = substrate: COc1ccc(-c2oc3c(CCC(C)(C)O)c(O)cc(O)c3c(=O)c2O)cc1; assay: Glucuronidation by expressed UGT1A8; assay type: in vitro ADME, human; conditions: pH 7.4
Experimental: as §1, §2

[5] = substrate: COc1ccc(-c2oc3c(CCC(C)(C)O)c(O)cc(O)c3c(=O)c2O)cc1; assay: Glucuronidation by expressed UGT1A3; assay type: in vitro ADME, human; conditions: pH 7.4
Experimental: Wushanicaritin was incubated with HLM, HIM and expressed UGTs enzymes to determine the rates of glucuronidation as published previously [12, 23, 31]. Briefly, the incubation mixture mainly contained 50 mM Tris-hydrochloric acid buffer (pH 7.4), 0.88 mM MgCl2, 22 µg/mL alamethicin, 4.4 mM saccharolactone and 3.5 mM UDPGA [32]. The reaction was terminated by adding ice-cold acetonitrile. The samples were vortexed and centrifuged at 13,800× g for 10 min. The supernatant was subjected to UPLC/Q-TOF-MS (Waters Corporation, Manchester, UK) analysis. […] Similarly, wushanicaritin was incubated with DLM, RLM, MkLM, RaLM and GpLM in the same way as for HLM. All experiments were performed in triplicate. Preliminary experiments were performed to ensure that the rates of glucuronidation were determined under linear conditions with respect to the incubation time and protein concentration.
Serial concentrations of wushanicaritin (0.156–20 µM) were incubated with HLM, HIM and expressed UGTs enzymes to determine wushanicaritin glucuronidation rates. […] Appropriate models were selected by visual inspection of the Eadie–Hofstee plot [34]. Model fitting and parameter estimation were performed by GraphPad Prism V5 software (GraphPad Software, Inc., San Diego, CA, USA).
The parameter were as follow. V is the formation rate of the product. Vmax is the maximal velocity. Km is the Michaelis constant, and [S] is the substrate. Ksi is the substrate inhibition constant. The intrinsic clearance (CLint) was derived by Vmax/Km for the Michaelis–Menten and substrate inhibition models [12]. (1) V=Vmax ×[S]/Km+[S] (2) V=Vmax ×[S]/Km + [S](1+[S]/Ksi)
(§3) The contribution of individual expressed UGT enzymes to wushanicaritin glucuronidation in HLM was evaluated by the relative activity factor (RAF) approach as described in previous studies [2, 12]. The relative activity factor was defined as the activity ratio of HLM to an expressed UGT enzyme (Supersome) toward a probe substrate for this enzyme using Equation (3). The relative amount of wushanicaritin glucuronidation in HLM attributed to an expressed UGT enzyme was estimated by multiplying the glucuronidation activity (i.e., the intrinsic clearance) derived with this enzyme by the corresponding RAF. […] The contributions of individual UGT enzyme were calculated according to Equation (4). (3) RAF=CLint{probe,pHLM}/CLint{probe,Supersome} (4) Contribution of UGTs=CLint(wushanica ritin,UGTs)/CLint(wushanica ritin,pHLM)×RAF

[6] = substrate: C[C@H](CCC(=O)O)[C@H]1CC[C@H]2[C@@H]3[C@H](O)C[C@@H]4C[C@H](O)CC[C@]4(C)[C@H]3CC[C@]12C; assay: not read; conditions: other: probe substrate glucuronidation; UGT1A3; pH 7.4
[7] = substrate: COc1ccc(-c2oc3c(CCC(C)(C)O)c(O)cc(O)c3c(=O)c2O)cc1; assay: Glucuronidation by expressed UGT1A7; assay type: in vitro ADME, human; conditions: pH 7.4
Experimental: as §1, §2

[8] = substrate: COc1ccc(-c2oc3c(CCC(C)(C)O)c(O)cc(O)c3c(=O)c2O)cc1; assay: not read; conditions: pH 7.4
Experimental: Briefly, the incubation mixture mainly contained 50 mM Tris-hydrochloric acid buffer (pH 7.4), 0.88 mM MgCl2, 22 µg/mL alamethicin, 4.4 mM saccharolactone and 3.5 mM UDPGA [32]. The reaction was terminated by adding ice-cold acetonitrile. […] The supernatant was subjected to UPLC/Q-TOF-MS (Waters Corporation, Manchester, UK) analysis. […] All experiments were performed in triplicate. Preliminary experiments were performed to ensure that the rates of glucuronidation were determined under linear conditions with respect to the incubation time and protein concentration.
Appropriate models were selected by visual inspection of the Eadie–Hofstee plot [34]. Model fitting and parameter estimation were performed by GraphPad Prism V5 software (GraphPad Software, Inc., San Diego, CA, USA).
V is the formation rate of the product. Vmax is the maximal velocity. Km is the Michaelis constant, and [S] is the substrate. Ksi is the substrate inhibition constant. The intrinsic clearance (CLint) was derived by Vmax/Km for the Michaelis–Menten and substrate inhibition models [12]. (1) V=Vmax ×[S]/Km+[S] (2) V=Vmax ×[S]/Km + [S](1+[S]/Ksi)
as §3

[9] = other: formation of G1 (3-O-glucuronide)
[10] = other: formation of G2 (7-O-glucuronide)
[11] = other: formation of G1 (3-O-glucuronide), UGT1A1
[12] = other: formation of G2 (7-O-glucuronide), UGT1A1
[13] = other: formation of G1 (3-O-glucuronide), UGT2B7
[14] = other: formation of G2 (7-O-glucuronide), UGT2B7

For `O=C1O[C@H]([C@@H](O)CO)C(O)=C1O` [vitamin C, reference compound], the IC50 [1] is given as 32 µM.

Work on `C[C@]12CC[C@@H]3c4ccc(O)cc4CC[C@H]3[C@@H]1CC[C@@H]2O` [β-estradiol, reference compound] yielded a Vmax [2] of 0.19 ± 0.09 nmol/min/mg and a Km [3] of 25.3 ± 4.28 µM.

B1: expressed human UGT1A8 (Homo sapiens) (protein)
chain: GKLLVVPMDGSHWFTMQSVVEKLILRGHEVVVVMPEVSWQLGKSLNCTVKTYSTSYTLEDLDREFMDFADAQWKAQVRSLFSLFLSSSNGFFNLFFSHCRSLFNDRKLVEYLKESSFDAVFLDPFDACGLIVAKYFSLPSVVFARGIACHYLEEGAQCPAPLSYVPRILLGFSDAMTFKERVRNHIMHLEEHLFCQYFSKNALEIASEILQTPVTAYDLYSHTSIWLLRTDFVLDYPKPVMPNMIFIGGINCHQGKPLPMEFEAYINASGEHGIVVFSLGSMVSEIPEKKAMAIADALGKIPQTVLWRYTGTRPSNLANNTILVKWLPQNDLLGHPMTRAFITHAGSHGVYESICNGVPMVMMPLFGDQMDNAKRMETKGAGVTLNVLEMTSEDLENALKAVINDKSYKENIMRLSSLHKDRPVEPLDLAVFWVEFVMRHKGAPHLRPAAHDLTWYQYHSLDVIGFLLAVVLTVAFITFKCCAYGYRKCLGKKGRVKKAHKSKTH
notes: purchased Corning Biosciences
B1 gave a K0.5 [4, 9] of 0.38 ± 0.03 µM, a Vmax [4, 9] of 2e-05 µmol/min/mg and a Vmax/Km [4, 9] of 50 µL/min/mg. It also gave a K0.5 [4, 10] of 0.58 ± 0.07 µM, a Vmax [4, 10] of 7e-05 µmol/min/mg and a Vmax/Km [4, 10] of 120 µL/min/mg.

B2: expressed human UGT1A3 (Homo sapiens) (protein)
chain: GKVLVVPIDGSHWLSMREVLRELHARGHQAVVLTPEVNMHIKEENFFTLTTYAISWTQDEFDRHVLGHTQLYFETEHFLKKFFRSMAMLNNMSLVYHRSCVELLHNEALIRHLNATSFDVVLTDPVNLCAAVLAKYLSIPTVFFLRNIPCDLDFKGTQCPNPSSYIPRLLTTNSDHMTFMQRVKNMLYPLALSYICHAFSAPYASLASELFQREVSVVDILSHASVWLFRGDFVMDYPRPIMPNMVFIGGINCANRKPLSQEFEAYINASGEHGIVVFSLGSMVSEIPEKKAMAIADALGKIPQTVLWRYTGTRPSNLANNTILVKWLPQNDLLGHPMTRAFITHAGSHGVYESICNGVPMVMMPLFGDQMDNAKRMETKGAGVTLNVLEMTSEDLENALKAVINDKSYKENIMRLSSLHKDRPVEPLDLAVFWVEFVMRHKGAPHLRPAAHDLTWYQYHSLDVIGFLLAVVLTVAFITFKCCAYGYRKCLGKKGRVKKAHKSKTH
notes: purchased Corning Biosciences
Work on B2 yielded a K0.5 [5, 9] of 0.45 ± 0.04 µM, a Vmax [5, 9] of 0.00017 µmol/min/mg and a Vmax/Km [5, 9] of 360 µL/min/mg. For the same molecule, the K0.5 [5, 10] was 0.61 ± 0.08 µM, the Vmax [5, 10] was 0.00023 µmol/min/mg and the Vmax/Km [5, 10] was 380 µL/min/mg. The Km [6] was 10.90 ± 0.74 µM, the Vmax [6] was 0.0002 µmol/min/mg and the Vmax/Km [6] was 18.5 µL/min/mg.

B3: expressed human UGT1A7 (Homo sapiens) (protein)
chain: GKLLVVPMDGSHWFTMQSVVEKLILRGHEVVVVMPEVSWQLGRSLNCTVKTYSTSYTLEDQDREFMVFADARWTAPLRSAFSLLTSSSNGIFDLFFSNCRSLFNDRKLVEYLKESCFDAVFLDPFDACGLIVAKYFSLPSVVFARGIFCHYLEEGAQCPAPLSYVPRLLLGFSDAMTFKERVWNHIMHLEEHLFCPYFFKNVLEIASEILQTPVTAYDLYSHTSIWLLRTDFVLEYPKPVMPNMIFIGGINCHQGKPVPMEFEAYINASGEHGIVVFSLGSMVSEIPEKKAMAIADALGKIPQTVLWRYTGTRPSNLANNTILVKWLPQNDLLGHPMTRAFITHAGSHGVYESICNGVPMVMMPLFGDQMDNAKRMETKGAGVTLNVLEMTSEDLENALKAVINDKSYKENIMRLSSLHKDRPVEPLDLAVFWVEFVMRHKGAPHLRPAAHDLTWYQYHSLDVIGFLLAVVLTVAFITFKCCAYGYRKCLGKKGRVKKAHKSKTH
notes: purchased Corning Biosciences
Molecule B3 has a K0.5 [7, 9] of 0.47 ± 0.03 µM, a Vmax [7, 9] of 0.00017 µmol/min/mg and a Vmax/Km [7, 9] of 360 µL/min/mg. The K0.5 [7, 10] was 0.61 ± 0.08 µM, the Vmax [7, 10] was 0.00023 µmol/min/mg and the Vmax/Km [7, 10] was 380 µL/min/mg.

B4: expressed human UGT1A1 (Homo sapiens) (protein)
chain: T1 sequence (P22309 26-533)
In the case of B4, the K0.5 [8, 11] is reported as 0.98 ± 0.20 µM, the Vmax [8, 11] is reported as 0.00113 µmol/min/mg and the Vmax/Km [8, 11] is reported as 1160 µL/min/mg. It also gave a K0.5 [8, 12] of 0.68 ± 0.08 µM, a Vmax [8, 12] of 0.00011 µmol/min/mg and a Vmax/Km [8, 12] of 160 µL/min/mg.

B5: expressed human UGT2B7 (Homo sapiens) (protein)
chain: GKVLVWAAEYSHWMNIKTILDELIQRGHEVTVLASSASILFDPNNSSALKIEIYPTSLTKTELENFIMQQIKRWSDLPKDTFWLYFSQVQEIMSIFGDITRKFCKDVVSNKKFMKKVQESRFDVIFADAIFPCSELLAELFNIPFVYSLSFSPGYTFEKHSGGFIFPPSYVPVVMSELTDQMTFMERVKNMIYVLYFDFWFEIFDMKKWDQFYSEVLGRPTTLSETMGKADVWLIRNSWNFQFPYPLLPNVDFVGGLHCKPAKPLPKEMEDFVQSSGENGVVVFSLGSMVSNMTEERANVIASALAQIPQKVLWRFDGNKPDTLGLNTRLYKWIPQNDLLGHPKTRAFITHGGANGIYEAIYHGIPMVGIPLFADQPDNIAHMKARGAAVRVDFNTMSSTDLLNALKRVINDPSYKENVMKLSRIQHDQPVKPLDRAVFWIEFVMRHKGAKHLRVAAHDLTWFQYHSLDVIGFLLVCVATVIFIVTKCCLFCFWKFARKAKKGKND
For B5, the K0.5 [8, 13] was 2.34 ± 0.19 µM, the Vmax [8, 13] was 3e-05 µmol/min/mg and the Vmax/Km [8, 13] was 10 µL/min/mg. For the same molecule, the K0.5 [8, 14] was 5.28 ± 0.98 µM, the Vmax [8, 14] was 1e-05 µmol/min/mg and the Vmax/Km [8, 14] was 2 µL/min/mg.
